US20040081647A1

Target: recombinant human TNFα (RDI) (human) (UniProt P01375)
Test: cell-based or functional assay

Sequence of recombinant human TNFα (RDI) (human) (P01375 77-233 limits assumed): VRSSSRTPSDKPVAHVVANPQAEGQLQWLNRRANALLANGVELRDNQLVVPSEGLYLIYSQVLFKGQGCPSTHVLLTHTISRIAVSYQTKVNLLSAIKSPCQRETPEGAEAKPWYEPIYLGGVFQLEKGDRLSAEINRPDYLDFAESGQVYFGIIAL

B1: MMP7 (enzyme, UniProt P09237 95-267, looked up, species assumed)
Matrilysin: YSLFPNSPKWTSKVVTYRIVSYTRDLPHITVDRLVSKALNMWGKEIPLHFRKVVWGTADIMIGFARGAHGDSYPFDGPGNTLAHAFAPGTGLGGDAHFDEDERWTDGSSLGINFLYAATHELGHSLGMGHSSDPNAVMYPTYGNGDPQNFKLSQDDIKGIQKLYGKRSNSRKK
survival of L929 cells at the dilution equivalent to ˜600 pg/ml TNFα after digestion: 40 % survival
